Measured values published in US20180356429A1.

Columns and labels:
[1] = biological target: Recombinant human IL-13 (R&D Systems, MN, catalog no. 213-ILB/CF) (human) (UniProt P35225); assay: sandwich pair screen, negative (blank) signal, binder is detection Ab; capture Ab 4D7
[2] = biological target: Recombinant human IL-13 (R&D Systems, MN, catalog no. 213-ILB/CF) (human) (UniProt P35225); assay: sandwich pair screen, negative (blank) signal, binder is detection Ab; capture Ab 11H4
[3] = biological target: Recombinant human IL-13 (R&D Systems, MN, catalog no. 213-ILB/CF) (human) (UniProt P35225); assay: sandwich pair screen, negative (blank) signal, binder is detection Ab; capture Ab 14C9
[4] = biological target: Recombinant human IL-13 (R&D Systems, MN, catalog no. 213-ILB/CF) (human) (UniProt P35225); assay: sandwich pair screen, negative (blank) signal, binder is detection Ab; capture Ab 8C11
[5] = biological target: Recombinant human IL-13 (R&D Systems, MN, catalog no. 213-ILB/CF) (human) (UniProt P35225); assay: sandwich pair screen, negative (blank) signal, binder is detection Ab; capture Ab 32116
[6] = biological target: Recombinant human IL-13 (R&D Systems, MN, catalog no. 213-ILB/CF) (human) (UniProt P35225); assay: sandwich pair screen, negative (blank) signal, binder is detection Ab; capture Ab 228B/C
[7] = biological target: Recombinant human IL-13 (R&D Systems, MN, catalog no. 213-ILB/CF) (human) (UniProt P35225); assay: sandwich pair screen, 100 pg/mL recombinant IL-13, binder is detection Ab; capture Ab 4D7
[8] = biological target: Recombinant human IL-13 (R&D Systems, MN, catalog no. 213-ILB/CF) (human) (UniProt P35225); assay: sandwich pair screen, 100 pg/mL recombinant IL-13, binder is detection Ab; capture Ab 11H4
[9] = biological target: Recombinant human IL-13 (R&D Systems, MN, catalog no. 213-ILB/CF) (human) (UniProt P35225); assay: sandwich pair screen, 100 pg/mL recombinant IL-13, binder is detection Ab; capture Ab 14C9
[10] = biological target: Recombinant human IL-13 (R&D Systems, MN, catalog no. 213-ILB/CF) (human) (UniProt P35225); assay: sandwich pair screen, 100 pg/mL recombinant IL-13, binder is detection Ab; capture Ab 8C11
[11] = biological target: Recombinant human IL-13 (R&D Systems, MN, catalog no. 213-ILB/CF) (human) (UniProt P35225); assay: sandwich pair screen, 100 pg/mL recombinant IL-13, binder is detection Ab; capture Ab 32116
[12] = biological target: Recombinant human IL-13 (R&D Systems, MN, catalog no. 213-ILB/CF) (human) (UniProt P35225); assay: sandwich pair screen, negative (blank) signal, binder is detection Ab; capture Ab MILR1444A
[13] = biological target: Recombinant human IL-13 (R&D Systems, MN, catalog no. 213-ILB/CF) (human) (UniProt P35225); assay: sandwich pair screen, 100 pg/mL recombinant IL-13, binder is detection Ab; capture Ab 228B/C
[14] = biological target: Recombinant human IL-13 (R&D Systems, MN, catalog no. 213-ILB/CF) (human) (UniProt P35225); assay: sandwich pair screen, 100 pg/mL recombinant IL-13, binder is detection Ab; capture Ab MILR1444A

Sequence of Recombinant human IL-13 (R&D Systems, MN, catalog no. 213-ILB/CF) (human) (P35225 other isoform, or with tags, fused parts or gaps): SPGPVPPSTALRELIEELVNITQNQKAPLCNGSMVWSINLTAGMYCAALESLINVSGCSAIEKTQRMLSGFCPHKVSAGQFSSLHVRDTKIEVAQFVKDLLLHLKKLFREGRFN

B1: 228B/C (antibody, from a related filing, V domains shown)
VH: QVQLQESGPGLVAPSQSLSITCTVSGFSLNAYSVNWVRQPPGKGLEWLGMIWGDGKIVYNSALKSRLNISKDSSKSQVFLKMSSLQSDDTARYYCAGDGYYPYAMDNWGHGTSVTVSS
VL: NIVLTQSPASLAVSLGQRATISCRASKSVDSYGNSFMHWYQQKPGQPPKLLIYLASNLESGVPARFSGSGSRTDFTLTIDPVEADDAASYYCQQNNEDPRTFGGGTKLEIK
- Assay Signal Neg (blank) [1]: 24.7
- Assay Signal Neg (blank) [2]: 22.4
- Assay Signal Neg (blank) [3]: 29
- Assay Signal Neg (blank) [4]: 3.9
- Assay Signal Neg (blank) [5]: 15.2
- Assay Signal Neg (blank) [6]: 26.6
- Assay Signal Pos [7]: 29.9
- Assay Signal Pos [8]: 9540
- Assay Signal Pos [9]: 70.3
- Assay Signal Pos [10]: 25.4
- Assay Signal Pos [11]: 126
- Assay Signal Neg (blank) [12]: 5.4
- Assay Signal Pos [13]: 27.7
- Assay Signal Pos [14]: 6
